Results published in article PMC4579020, “Reassembly and co-crystallization of a family 9 processive endoglucanase from its component parts: structural and functional significance of the intermodular linker” (PeerJ, 2015).

Columns and labels:
[1] = target: T1, CBM3c module of Cel9I with its adjacent N-terminal linker, C-terminally His-tagged (Clostridium thermocellum, UniProt Q02934 54-516); experiment: ITC; VP-ITC, 298 K; about 300 µM CBM3c injected into 65 µM GH9; 50 mM Tris-HCl pH 7.5, 150 mM NaCl, 0.05% sodium azide; one binding site model; CBM3c concentrations corrected to give a stoichiometry of one; two titrations; settings: both partners purified
T1 construct: Cloning is described in Burstein et al., 2009 and Gilad et al., 2003; also called CBM3cL; CBM3c with linker; source: E. coli BL21(DE3)RIL, purified (Ni-IDA); not shown: His tag, C-terminal, kept
T1 sequence: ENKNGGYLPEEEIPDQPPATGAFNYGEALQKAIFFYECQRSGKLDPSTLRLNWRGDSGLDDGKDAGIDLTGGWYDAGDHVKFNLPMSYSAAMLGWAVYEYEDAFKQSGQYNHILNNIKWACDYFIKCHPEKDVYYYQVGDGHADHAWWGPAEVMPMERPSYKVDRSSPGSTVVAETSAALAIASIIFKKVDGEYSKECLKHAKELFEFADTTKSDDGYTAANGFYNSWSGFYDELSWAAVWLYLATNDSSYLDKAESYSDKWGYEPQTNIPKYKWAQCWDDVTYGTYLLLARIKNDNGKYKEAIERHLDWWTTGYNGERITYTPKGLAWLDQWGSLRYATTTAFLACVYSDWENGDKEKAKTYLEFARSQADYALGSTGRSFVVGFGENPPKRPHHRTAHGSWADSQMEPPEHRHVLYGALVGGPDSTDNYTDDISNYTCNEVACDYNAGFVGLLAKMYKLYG

[2] = target: GH9 catalytic module of Cel9I from Clostridium thermocellum, N-terminally His-tagged (Clostridium thermocellum)
[3] = target: T2, GH9 catalytic module of Cel9I from Clostridium thermocellum, untagged (Clostridium thermocellum); experiment: ITC; VP-ITC, 298 K; about 300 µM CBM3c injected into 65 µM GH9; 50 mM Tris-HCl pH 7.5, 150 mM NaCl, 0.05% sodium azide; one binding site model; CBM3c concentrations corrected to give a stoichiometry of one; two titrations; settings: both partners purified
T2 chain: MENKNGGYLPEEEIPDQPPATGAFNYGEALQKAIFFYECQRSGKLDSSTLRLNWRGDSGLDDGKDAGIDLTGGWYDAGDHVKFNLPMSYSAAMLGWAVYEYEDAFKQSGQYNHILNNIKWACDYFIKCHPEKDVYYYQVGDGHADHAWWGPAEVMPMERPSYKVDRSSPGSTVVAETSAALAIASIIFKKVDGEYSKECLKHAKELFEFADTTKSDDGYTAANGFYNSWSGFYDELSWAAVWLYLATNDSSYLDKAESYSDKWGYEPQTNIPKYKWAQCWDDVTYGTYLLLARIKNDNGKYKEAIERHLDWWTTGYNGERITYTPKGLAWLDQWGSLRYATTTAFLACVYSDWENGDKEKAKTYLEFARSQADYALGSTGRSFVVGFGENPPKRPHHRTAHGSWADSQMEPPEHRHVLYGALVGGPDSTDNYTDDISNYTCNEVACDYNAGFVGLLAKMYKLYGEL

B1: GH9 catalytic module of Cel9I from Clostridium thermocellum, untagged (domain or fragment)
chain: MENKNGGYLPEEEIPDQPPATGAFNYGEALQKAIFFYECQRSGKLDSSTLRLNWRGDSGLDDGKDAGIDLTGGWYDAGDHVKFNLPMSYSAAMLGWAVYEYEDAFKQSGQYNHILNNIKWACDYFIKCHPEKDVYYYQVGDGHADHAWWGPAEVMPMERPSYKVDRSSPGSTVVAETSAALAIASIIFKKVDGEYSKECLKHAKELFEFADTTKSDDGYTAANGFYNSWSGFYDELSWAAVWLYLATNDSSYLDKAESYSDKWGYEPQTNIPKYKWAQCWDDVTYGTYLLLARIKNDNGKYKEAIERHLDWWTTGYNGERITYTPKGLAWLDQWGSLRYATTTAFLACVYSDWENGDKEKAKTYLEFARSQADYALGSTGRSFVVGFGENPPKRPHHRTAHGSWADSQMEPPEHRHVLYGALVGGPDSTDNYTDDISNYTCNEVACDYNAGFVGLLAKMYKLYGEL
modifications: one bound Ca2+ in the crystal. Limits are the crystallized untagged GH9 entity (466 aa, about 52 kDa as on SDS-PAGE). Paper residues 1-446 are entity 21-466 (offset +20, from Tyr440, Gly444 and end …)
- Kd [1]: 1300 to 2000 nM

B2: CBM3c module of Cel9I without the N-terminal linker, C-terminally His-tagged (domain or fragment)
chain: EVPEDEIFVEAGVNASGNNFIEIKAIVNNKSGWPARVCENLSFRYFINIEEIVNAGKSASDLQVSSSYNQGAKLSDVKHYKDNIYYVEVDLSGTKIYPGGQSAYKKEVQFRISAPEGTVFNPENDYSYQGLSAGTVVKSEYIPVYDAGVLVFGREP
modifications: one bound Ca2+ in the crystal. Limits are the crystallized untagged GH9 entity (466 aa, about 52 kDa as on SDS-PAGE). Paper residues 1-446 are entity 21-466 (offset +20, from Tyr440, Gly444 and end …)
- CMCase activity (reducing sugar released in 10 min, 333 K, pH 6.0) of 70 pmol His-tagged GH9 mixed with increasing amounts of CBM3cNL, relative to intact Cel9I set as 100% (% of intact Cel9I activity) [2]: 10
- Kd [3]: 290 to 430 nM
